{
  "source": "patent US8206955B2",
  "about": "“Production of monatin and monatin precursors” (Cargill, Incorporated, priority 2003, dated 2012)",
  "assay": "tryptophan aminotransferase activity, production of indole-pyruvic acid",
  "type": "biochemical",
  "settings": "for tryptophan aminotransferase activity (in words): recombinant clones expressed in E. coli",
  "protocol": "Cell extracts were analyzed by SDS-PAGE, and assayed for tryptophan aminotransferase activity by following production of indole-pyruvic acid using the following protocol. One mL reactions were carried out in 50 mM sodium tetraborate (pH 8.5), 0.5 mM EDTA, 0.5 mM sodium arsenate, 50 μM pyridoxal phosphate, 5 mM α-ketoglutarate, and 5 mM L-tryptophan. The reactions were initiated by the addition of cell free extracts or purified enzyme and were incubated 30 minutes at 30° C. 20% TCA (200 μL) was added to stop the reaction, and the precipitated protein was removed by centrifugation. The absorbance at 327 nm was measured and compared to a standard curve of freshly prepared indole-3-pyruvate in the assay buffer. Control reactions without the substrate tryptophan or using cell-free extracts from clones transformed with pET30a alone were also performed.\nDue to background from the native E. coli aminotransferases in cell extracts, the recombinant fusion proteins each containing an aminotransferase protein fused to the pET30 amino terminal HIS6-Tag/S-Tag (6×HIS tag disclosed as SEQ ID NO: 90) were purified using immobilized metal affinity chromatography with His-Bind cartridges following manufacturer's protocols (Novagen, Madison, Wis.). The HIS6-Tag sequence (SEQ ID NO: 90) of the fusion proteins binds to the divalent Ni^2+ cations immobilized on IDA-based His-Bind resin. The eluent fractions were desalted on PD-10 (Amersham Biosciences, Piscataway, N.J.) columns and eluted in 50 mM Tris, pH 7.0. Purified proteins were analyzed by SDS-PAGE and assayed for aminotransferase activity.\nTable 1 lists the specific activities measured in micrograms of indole-3-pyruvate (I3P) formed per milligram protein per minute. […] In these cases a ‘>’ precedes the specific activity number.",
  "key": {"[1]": {"settings": "purified (P), 5 mM L-tryptophan, 30 minutes at 30° C."}, "[2]": {"settings": "cell extracts (CE), 5 mM L-tryptophan, 30 minutes at 30° C."}},
  "data": [
    {"molecule": "E. coli aspC: Escherichia coli aspartate aminotransferase (aspC) (protein, UniProt P00509 1-396, looked up) Aspartate aminotransferase: MFENITAAPADPILGLADLFRADERPGKINLGIGVYKDETGKTPVLTSVKKAEQYLLENETTKNYLGIDGIPEFGRCTQELLFGKGSALINDKRARTAQTPGGTGALRVAADFLAKNTSVKRVWVSNPSWPNHKSVFNSAGLEVREYAYYDAENHTLDFDALINSLNEAQAGDVVLFHGCCHNPTGIDPTLEQWQTLAQLSVEKGWLPLFDFAYQGFARGLEEDAEGLRAFAAMHKELIVASSYSKNFGLYNERVGACTLVAADSETVDRAFSQMKAAIRANYSNPPAHGASVVATILSNDALRAIWEQELTDMRQRIQRMRQLFVNTLQEKGANRDFSFIIKQNGMFSFSGLTKEQVLRLREEFGVYAVASGRVNVAGMTPDNMAPLCEAIVAVL", "values": [
      {"measurement": "Specific Activity", "setting": "[1]", "result": 800, "unit": "μg I3P/mg protein/min"},
      {"measurement": "tryptophan aminotransferase activity (in words)", "result": "significant levels of tryptophan aminotransferase activity"}
    ]},
    {"molecule": "B. subtilis araT: Bacillus subtilis aromatic aminotransferase (araT, SEQ ID NOS: 9 and 10) (protein, listed as Bacillus subtilis) MEHLLNPKAREIEISGIRKFSNLVAQHEDVISLTIGQPDFFTPHHVKAAAKKAIDENVTSYTPNAGYLELRQAVQLYMKKKADFNYDAESEIIITTGASQAIDAAFRTILSPGDEVIMPGPIYPGYEPIINLCGAKPVIVDTTSHGFKLTARLIEDALTPNTKCVVLPYPSNPTGVTLSEEELKSIAALLKGRNVFVLSDEIYSELTYDRPHYSIATYLRDQTIVINGLSKSHSMTGWRIGFLFAPKDIAKHILKVHQYNVSCASSISQKAALEAVTNGFDDALIMREQYKKRLDYVYDRLVSMGLDVVKPSGAFYIFPSIKSFGMTSFDFSMALLEDAGVALVPGSSFSTYGEGYVRLSFACSMDTLREGLDRLELFVLKKREAMQTINNGV", "values": [
      {"measurement": "Specific Activity", "setting": "[2]", "result": 0, "unit": "μg I3P/mg protein/min"},
      {"measurement": "Specific Activity", "setting": "[1]", "result": "1.5–4.5 μg I3P/mg protein/min"},
      {"measurement": "tryptophan aminotransferase activity (in words)", "result": "little enzymatic activity"}
    ]},
    {"molecule": "R. sphaeroides 2.4.1 tatA: Rhodobacter sphaeroides strain 2.4.1 tyrosine aminotransferase (SEQ ID NOS: 3 and 4) (protein, Rhodobacter sphaeroides) MRSTTAPGPSGACMTISRSRKDDEGMLTALKPQPADKILQLIQMFREDARADKIDLGVGVYKDPTGLTPVMRAVKAAEKRLWEVETTKTYTGLADEPAYNAAMAKLILAGAVPADRVASVATPGGTGAVRQALELIRMASPEATVWISNPTWPNHLSIVKYLGIPMREYRYFDAETGAVDAEGMMEDLAQVKAGDVVLLHGCCHNPTGANPNPVQWLAICESLARTGAVPLIDLAYQGFGDGLEMDAAATRLLATRLPEVLIAASCSKNFGIYRERTGILIAIGEAAGRGTVQANLNFLNRQNYSFPPDHGARLVTMILEDETLSADWKAELEEVRLNMLTLRRQLADALQAETGSNRFGFVAEHRGMFSRLGITPAEVERLRTEHGVYMVGDSRLNIAGLNRTTVPVLARAVAKVLRG", "values": [
      {"measurement": "Specific Activity", "setting": "[2]", "result": ">41.2", "unit": "μg I3P/mg protein/min"},
      {"measurement": "Specific Activity", "setting": "[1]", "result": 1086, "unit": "μg I3P/mg protein/min"}
    ]},
    {"molecule": "R. sphaeroides 35053 tatA: R. sphaeroides 35053 tyrosine aminotransferase (SEQ ID NOS: 5 and 6) (protein, Rhodobacter sphaeroides) MRSTTAPGPSGACMTISRSRKDDEGMLTALKPQPADKILQLIQMFREDARADKIDLGVGVYKDPTGLTPVMRAVKAAEKRLWEVETTKTYTGLAGEPAYNAAMAKLILAGAVPADRVASVATPGGTGAVRQALELIRMASPEATVWISNPTWPNHLSIVKYLGIPMREYRYFDAETGAVDAEGLMEDLAQVKAGDVVLLHGCCHNPTGANPNPVQWLAVCESLARTGAVPLIDLAYQGFGDGLEMDAAATRLLATRLPEVLIAASCSKNFGIYRERTGILIAIGEAAGRGTVQANLNFLNRQNYSFPPDHGARLVTMILEDETLSADWKAELEEVRLNMLTLRRQLADALQAETGSNRFGFVAEHRGMFSRLGITPAEVERLRTEHGVYMVGDSRLNIAGLNRTTVPVLARAVAKVLRG", "values": [
      {"measurement": "Specific Activity", "setting": "[2]", "result": ">62.3", "unit": "μg I3P/mg protein/min"},
      {"measurement": "Specific Activity", "setting": "[1]", "result": ">486", "unit": "μg I3P/mg protein/min"}
    ]},
    {"molecule": "L. amylovorus araT: Lactobacillus amylovorus aromatic aminotransferase (araT, SEQ ID NOS: 11 and 12), novel (protein, listed as Lactobacillus amylovorus) MPELANDLGLSKKITDVKASGIRIFDNKVSAIPGIIKLTLGEPDMNTPEHVKQAAIKNIADNDSHYAPQKGKLELRKAISKYLKKITGIEYDPETEIVVTVGATEAINATLFAITNPGDKVAIPTPVFSLYWPVATLADADYVLMNTAEDGFKLTPKKLEETIKENPTIKAVILNYPTNPTGVEYSEDEIKALAKVIKDNHLYVITDEIYSTLTYGVKHFSIASLIPERAIYISGLSKSHAMTGYRLGYVAGPAKIMAEIGKVHGLMVTTTTDSSQAAAIEALEHGLDDPEKYREVYEKRRDYVLKELAEIEMQAVKPEGAFYIFAKIPAKYGKDDMKFALDLAFKEKVGITPGSAFGPGGEGHIRLSYASSDENLHEAMKRMKKVLQEDE", "values": [
      {"measurement": "Specific Activity", "setting": "[2]", "result": 1.26, "unit": "μg I3P/mg protein/min"},
      {"measurement": "Specific Activity", "setting": "[1]", "result": 0, "unit": "μg I3P/mg protein/min"}
    ]},
    {"molecule": "R. sphaeroides 35053 msa: R. sphaeroides 35053 multiple substrate aminotransferase (SEQ ID NOS: 13 and 14) (protein, R. sphaeroides) MREPLALEIDPGHGGPLFLAIAEAITLDITRGRLRPGARLPGTRALARALGVHRNTVDAAYQELLTQGWLQAEPARGTFVAQDLPQGMLVHRPAPAPVEPVAMRAGLAFSDGAPDPELVPDKALARAFRRALLSPAFRAGADYGDARGTSSLREALAAYLASDRGVVADPARLLIARGSQMALFLVARAALAPGEAIAVEEPGYPLAWEAFRAAGAEVRGVPVDGGGLRIDALEAALARDPRIRAVYVTPHHQYPTTVTMGAARRLQLLELAERHRLALIEDDYDHEYRFEGRPVLPLAARAPEGLPLIYVGSLSKLLSPGIRLGYALAPERLLTRMAAARAAIDRQGDAPLEAALAELIRDGDLGRHARKARRVYRARRDLLAERLTAQLAGRAAFDLPAGGLALWLRCAGVSAETWAEAAGQAGLALLPGTRFALESPAPQAFRLGYAALDEGQIARAVEILARSFPG", "values": [
      {"measurement": "Specific Activity", "setting": "[2]", "result": 3.97, "unit": "μg I3P/mg protein/min"},
      {"measurement": "Specific Activity", "setting": "[1]", "result": 0, "unit": "μg I3P/mg protein/min"}
    ]},
    {"molecule": "E. coli tyrB: E. coli tyrosine aminotransferase (tyrB, SEQ ID NOS: 31 and 32) (protein, E. coli) VFQKVDAYAGDPILTLMERFKEDPRSDKVNLSIGLYYNEDGIIPQLQAVAEAEARLNAQPHGASLYLPMEGLNCYRHAIAPLLFGADHPVLKQQRVATIQTLGGSGALKVGADFLKRYFPESGVWVSDPTWENRVAIFAGAGFEVSTYPWYDEATNGVRFNDLLATLKTLPARSIVLLHPCCHNPTGADLTNDQWDAVIEILKARELIPFLDIAYQGFGAGMEEDAYAIRAIASAGLPALVSNSFSKIFSLYGERVGGLSVMCEDAEAAGRVLGQLKATVRRNYSSPPNFGAQVVAAVLNDEALKASWLAEVEEMRTRILAMRQELVKVLSTEMPERNFDYLLNQRGMFSYTGLSAAQVDRLREEFGVYLIASGRMCVAGLNTANVQRVAKAFAAVM", "values": [
      {"measurement": "Specific Activity", "setting": "[1]", "result": 1, "unit": "μg I3P/mg protein/min"}
    ]},
    {"molecule": "Porcine type II-A: Glutamic-oxaloacetic transaminase from pig heart (type IIa), Sigma G7005 (protein, UniProt P00503 2-413, looked up) Aspartate aminotransferase, …: APPSVFAEVPQAQPVLVFKLIADFREDPDPRKVNLGVGAYRTDDCQPWVLPVVRKVEQRIANDSSLNHEYLPILGLAEFRTCASRLALGDDSPALQEKRVGGVQSLGGTGALRIGAEFLARWYNGTNNKDTPVYVSSPTWENHNGVFTTAGFKDIRSYRYWDTEKRGLDLQGFLSDLENAPEFSIFVLHACAHNPTGTDPTPEQWKQIASVMKRRFLFPFFDSAYQGFASGNLEKDAWAIRYFVSEGFELFCAQSFSKNFGLYNERVGNLTVVAKEPDSILRVLSQMEKIVRVTWSNPPAQGARIVARTLSDPELFHEWTGNVKTMADRILSMRSELRARLEALKTPGTWNHITDQIGMFSFTGLNPKQVEYLINEKHIYLLPSGRINMCGLTTKNLDYVATSIHEAVTKIQ", "values": [
      {"measurement": "Specific Activity", "setting": "commercial enzyme (Sigma)", "result": 1.5, "unit": "μg I3P/mg protein/min"}
    ]},
    {"molecule": "Porcine type I: commercial porcine glutamate-oxaloacetate aminotransferase, Sigma G2751 (protein, UniProt P00503 2-413, looked up) Aspartate aminotransferase, …: APPSVFAEVPQAQPVLVFKLIADFREDPDPRKVNLGVGAYRTDDCQPWVLPVVRKVEQRIANDSSLNHEYLPILGLAEFRTCASRLALGDDSPALQEKRVGGVQSLGGTGALRIGAEFLARWYNGTNNKDTPVYVSSPTWENHNGVFTTAGFKDIRSYRYWDTEKRGLDLQGFLSDLENAPEFSIFVLHACAHNPTGTDPTPEQWKQIASVMKRRFLFPFFDSAYQGFASGNLEKDAWAIRYFVSEGFELFCAQSFSKNFGLYNERVGNLTVVAKEPDSILRVLSQMEKIVRVTWSNPPAQGARIVARTLSDPELFHEWTGNVKTMADRILSMRSELRARLEALKTPGTWNHITDQIGMFSFTGLNPKQVEYLINEKHIYLLPSGRINMCGLTTKNLDYVATSIHEAVTKIQ", "values": [
      {"measurement": "Specific Activity", "setting": "commercial enzyme (Sigma)", "result": 1, "unit": "μg I3P/mg protein/min"}
    ]}
  ]
}
